Km and kcat data for two proteins are collected here from doi:10.1101/2022.11.18.516900v2.

Substitutions are numbered along the chain they refer to. Numbers in names are those of the source.

Substrate in data set [1]: NC(=O)C1=CN([C@@H]2O[C@H](COP(=O)(O)OP(=O)(O)OC[C@H]3O[C@@H](n4cnc5c(N)ncnc54)[C@H](O)[C@@H]3O)[C@@H](O)[C@H]2O)C=CC1
The experiment in a line: purified protein. The settings on record: 300 μM methylene-H4F, 100 mM Mops/NaOH pH 7.0, 40 °C, under N2.

Substrate in data set [2]: Nc1nc2c(c(=O)[nH]1)N1CN(c3ccc(C(=O)N[C@@H](CCC(=O)O)C(=O)O)cc3)C[C@H]1CN2
Nature of the data set: purified protein. The conditions noted are these: 100 μM NADH, 100 mM Mops/NaOH pH 7.0, 40 °C, under N2.

B1: hMfr (Mycolicibacterium hassiacum DSM 44199) (protein)
chain: MTLNTIALELVPPNSDGPDGGREQAVEDARKVLRCAAETGLAGRIGHVMIPGMIEEDPDRPIPMKPKMDVLDFWTIIRPELPGIRGLCTQVTAFLDEPALRRRLGDLSAAGFDGIAFVGVPRTMNDGEGHGVAPTDALSMFADLVPNRGAILIPTRDGEQGRFEFKCERGATYGMTQLLYSDAIVGFLREFARRTDHRPEILLSFGFVPKLEAKVGLINWLIQDPGNPAVAAEQEFVRRLAGLEPADKRKLMVDLYKRVIDGVADLGFPLSVHLEATYGVSVPAFETFAEMLAYWSPGQG
Usually Km stands for the concentration of substrate that gives half-maximal velocity. What is called kcat is the number of substrate molecules converted per active site and unit of time at saturation. Turning to B1, in the data set “purified protein [1]”, the Km worked out at 16 ± 3 µM and the catalytic constant (kcat) amounted to 9 ± 0.383 s⁻¹. In “purified protein [2]”, the Km was 160 ± 62 µM and the kcat came to 9.83 ± 1.42 s⁻¹.

B2: hMfr (Mycolicibacterium hassiacum DSM 44199; E9Q) (protein)
chain: B1 chain with E9Q
Turning to B2, in “purified protein [1]”, the Michaelis constant (Km) was 44 ± 13 µM and the kcat came out at 0.0183 ± 0.0017 s⁻¹. In addition, in the data set “purified protein [2]”, the Michaelis-Menten constant (Km) was determined as 250 ± 59 µM and the catalytic constant (kcat) was found to be 0.0217 ± 0.0017 s⁻¹.
